Experimental findings from US20030113828A1 (published 2003) are described below.

Positions count from the first letter of the chain named. In names and notes the source's numbering stands. Square brackets hold non-standard residues; d marks the D form. Ends that are not written are not given here. pY = N[C@@H](Cc1ccc(OP(=O)(O)O)cc1)C(=O)O

The target of assay [1] is T1, GST-Zap-70(1-337) (human, UniProt P43403 1-337).
T1 construct: range 1-337; also called tandem SH2 domains of Zap-70; not shown: glutathione S-transferase (GST) from pGEX-2T
T1 sequence (looked up): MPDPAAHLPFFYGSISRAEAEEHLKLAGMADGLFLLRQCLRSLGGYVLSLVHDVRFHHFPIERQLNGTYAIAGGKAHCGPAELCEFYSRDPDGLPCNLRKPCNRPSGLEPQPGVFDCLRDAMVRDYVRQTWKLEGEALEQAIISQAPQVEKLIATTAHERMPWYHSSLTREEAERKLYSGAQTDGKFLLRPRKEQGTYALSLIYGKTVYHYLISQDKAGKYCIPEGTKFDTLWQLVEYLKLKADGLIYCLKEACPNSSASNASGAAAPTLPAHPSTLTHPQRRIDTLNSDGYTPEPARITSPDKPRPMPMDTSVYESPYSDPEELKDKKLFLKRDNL
The assay is described as follows: affinity chromatography / surface plasmon resonance. On the technique in general: In SPR one partner is held on a chip, and binding of the other changes the refractive index at the surface.

Assay [2] has as its target T2, GST fusion of the interdomain A of Syk (UniProt P43405 108-167).
T2 construct: domain: interdomain A; also called Syk interdomain A GST-fusion protein; not shown: glutathione S-transferase (GST) fusion partner
The assay is described as follows: direct binding assay with GST fusion of Syk interdomain A. On the procedure: (§1) The regions involved in phosphotyrosine binding are widely separated and in opposite orientation (Hof et al. (1998) Cell 92:441-450).
(§2) For direct binding assays, model peptides (1 mg) were dissolved in 1 ml buffer containing 20 mM Tris (pH 7.9), 500 mM NaCl, and 6 M urea. To this, 50 ul packed His-Bind® Resin (Novagen, Madison, Wis.) was added and the mixture was rotated for 1 hour at room temperature. Immobilized peptides were washed 5× in above buffer without urea, and resuspended in 500 μl buffer containing 20 mM PIPES pH 6.8, 50 mM NaCl, 3 mM MgCl₂, 150 mM sucrose, 50 mM NaF, 40 mM Na₄P₂O₇*10H₂O (buffer A) supplemented with 0.1% TritonX-100 and 3 mM MgCl₂. Purified GST-fusion proteins were added to 0.5 ml buffer A supplemented with 0.1% TritonX-100 and 3 mM MgCl₂. Five μl of total packed resin loaded with various integrin cytoplasmic domain model proteins was added to the GST-fusion protein. The mixture was incubated for 40 minutes at room temperature with continuous rotation. The beads were then washed five times in buffer A with 0.1% TritonX-100 and 3 mM MgCl₂. Bound proteins were eluted by boiling in reducing sample buffer, fractionated by SDS PAGE, and immuno-blotted.

Assay [3] concerns the target T3, Zap-70(1-132) (human, UniProt P43403 1-132).
T3 construct: range 1-132
T3 sequence (looked up): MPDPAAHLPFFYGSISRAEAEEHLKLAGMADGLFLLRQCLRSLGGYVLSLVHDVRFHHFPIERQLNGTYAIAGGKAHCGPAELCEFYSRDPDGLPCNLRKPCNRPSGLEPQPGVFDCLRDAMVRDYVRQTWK
The assay is described as follows: binding of Zap-70 truncation mutants to the β3 tail. Here is the method: as §2

Assay [4] concerns the target T4, Zap-70(1-162) (human, UniProt P43403 1-162).
T4 construct: range 1-162; also called N-terminal SH2 domain of Zap-70 with its intact IA domain
The assay is described as above. On the procedure: as §2

The target of assay [5] is T5, GST-Syk(163-270) (UniProt P43405 163-270).
T5 construct: also called C-terminal SH2 domain of Syk; not shown: glutathione S-transferase (GST) fusion partner
The assay is described as follows: direct binding assay. On the procedure:
as §1, §2

For assay [6], the target named is T6, GST-Zap-70(1-103) (human, UniProt P43403 1-103).
T6 construct: range 1-103; also called Zap-70 N-terminal SH2 domain; not shown: glutathione S-transferase (GST) from pGEX-2T
T6 sequence (looked up): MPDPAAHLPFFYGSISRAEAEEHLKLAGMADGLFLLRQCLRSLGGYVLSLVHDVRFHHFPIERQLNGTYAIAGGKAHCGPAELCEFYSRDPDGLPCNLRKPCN
Description: direct binding assay. On the procedure:
as §1, §2

For assay [7], the target named is T7, GST-Zap-70(163-254) (human, UniProt P43403 163-254).
T7 construct: also called Zap-70 C-terminal SH2 domain; not shown: glutathione S-transferase (GST) from pGEX-2T
T7 sequence (looked up): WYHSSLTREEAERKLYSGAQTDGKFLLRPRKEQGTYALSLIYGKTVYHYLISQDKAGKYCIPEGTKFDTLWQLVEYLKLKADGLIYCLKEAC
The assay is described as follows: direct binding assay. Here is the method: as §1, §2

The target in assay [8] is T8, tandem SH2 domains of SHP-2 (UniProt Q06124 1-220, limits assumed).
T8 construct: domain: tandem SH2 domains
T8 sequence (looked up): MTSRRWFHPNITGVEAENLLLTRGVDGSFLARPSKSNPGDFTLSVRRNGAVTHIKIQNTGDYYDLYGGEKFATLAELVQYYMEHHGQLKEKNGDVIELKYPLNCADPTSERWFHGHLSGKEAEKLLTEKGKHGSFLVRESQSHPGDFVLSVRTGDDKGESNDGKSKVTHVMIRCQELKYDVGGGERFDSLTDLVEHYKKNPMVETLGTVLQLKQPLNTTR
Description: direct binding assay. On the procedure:
as §1, §2

Assay [9] addresses Syk(6-370) cleaved from GST-Syk(6-370) by thrombin (UniProt P43405 6-370). The assay is described as follows: surface plasmon resonance (BIAcore 3000). On the procedure: However integrins are far more abundant than ITAM containing receptor complexes on most cells. For example, Jurkat T cells express ˜80,000 copies of α4β1 (Chen et al. (1999) J Biol Chem 274:13167-13175) and only ˜-12,000 copies of the TCR (Graber et al. (1991) J Immunol 146:2935-2943) on their cell surface.
Experimental procedures, integrin cytoplasmic domain modifications, and data analysis was performed in accordance with procedures described by Yan et al. ((2001) J Biol Chem 276:28164-28170).

Assay [10] concerns the target T9, Zap-70 (human, UniProt P43403 1-619).
T9 construct: also called Syk paralog
T9 sequence (looked up): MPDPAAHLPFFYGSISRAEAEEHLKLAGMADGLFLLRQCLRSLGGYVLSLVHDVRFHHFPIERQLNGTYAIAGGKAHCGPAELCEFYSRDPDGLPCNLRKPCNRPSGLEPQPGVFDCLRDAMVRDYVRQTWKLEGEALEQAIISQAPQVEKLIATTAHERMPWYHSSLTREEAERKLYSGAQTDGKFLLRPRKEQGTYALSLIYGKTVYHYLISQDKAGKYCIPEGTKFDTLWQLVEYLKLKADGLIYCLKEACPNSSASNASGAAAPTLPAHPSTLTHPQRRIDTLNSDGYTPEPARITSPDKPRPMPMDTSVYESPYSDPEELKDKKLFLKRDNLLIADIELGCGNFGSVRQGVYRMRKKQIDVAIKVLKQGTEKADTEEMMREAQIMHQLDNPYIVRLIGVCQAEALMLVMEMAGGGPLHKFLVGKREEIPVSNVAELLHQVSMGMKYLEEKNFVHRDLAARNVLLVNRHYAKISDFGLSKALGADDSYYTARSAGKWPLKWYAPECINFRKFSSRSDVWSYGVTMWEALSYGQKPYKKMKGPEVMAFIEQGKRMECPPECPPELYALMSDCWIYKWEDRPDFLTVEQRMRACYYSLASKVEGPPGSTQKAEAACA
Description: affinity chromatography of cell lysates on tail model protein beads, immunoblot. The text has this: (§3) The model protein mimics are designed with an N-terminal heptad repeat sequence joined to the integrin cytoplasmic domains. The repeats form a coiled-coil homodimer that dimerizes the integrin tails (Pfaff et al. (1998) J Biol Chem 273:6104-6109). These protein mimics are also describied in U.S. patent application Ser. No. 90/320,907, filed May 27, 1999 and U.S. patent application Ser. No. 90/323,447, filed Jun. 1, 1999, the teachings of which are herein incorporated by reference in their entirety.
(§4) Following incubation, beads were washed and bound protein was analyzed by immunoblotting.
In general terms: In western blotting, separated proteins are transferred to a membrane and probed.

In assay [11] the target is T10, Syk protein tyrosine kinase (wild type) (UniProt P43405 1-635).
T10 construct: the printed residue numbers (K402, R195, R42, Tyr348) fit it; also called wild-type Syk; Syk kinase
The assay is described as above.
Text: as §3, §4

Assay [12] deals with T1, GST-Zap-70(1-337). Description: direct binding of GST fusion protein to tail model protein beads, immunoblot. On the procedure:
as §4, §2

Assay [13] has as its target GST-Syk(6-370) (UniProt P43405 6-370). The description is as above. Here is the method: as §4, §2
Assay [14] concerns the target T10, Syk protein tyrosine kinase (wild type). Description: binding to β3 tail deletion mutant in vitro. On the procedure:
as §2

Assay [15] has the same target. Description: cell-based or functional assay.

As to KLLMIIHDRREFAKFEKEKMNAKWDTGENPIYKSAVTTVVNPKYEGK (other, UniProt P05556 752-798, looked up, not shown: small tags and cut ends, not fully specified, domain: cytoplasmic domain) [β1A integrin cytoplasmic domain model protein], in [1], the binding result is “binds”.

B1: integrin β3 cytoplasmic tail model protein (other, UniProt P05106 742-788, looked up, not shown: a dimerising Fc or GST)
chain: KLLITIHDRKEFAKFEEERARAKWDTANNPLYKEATSTFTNITYRGT
modifications: also: coiled-coil homodimer
notes: domain: cytoplasmic domain; Coiled-coil homodimer; also called β3 tail; β3 tail model protein
For B1, the binding result in assay [2] is reported as “no binding”; in [3], “binds”; in assay [4], “binds”; in [1], “binds”; in assay [5], “no binding”; in [6] it was “binds”. Moreover, the binding result in assay [7] and in assay [8] was “no binding” in each case. The molecule also registered an equilibrium dissociation constant (Kd) in assay [9] of 24 nM.

B2: integrin β3(Y747A) cytoplasmic tail model protein (other, UniProt P05106 742-788, looked up, not shown: small tags and cut ends)
chain: B1 chain with Y32A
modifications: not fully specified
notes: domain: cytoplasmic domain; also called β3(Y747A) tail; point mutant of the β3 tail (Y747A)
On to B2, for which the binding result in [10] is on record as “no binding”; in [11], “no binding”; in [12], “no binding (tested: 5 nM)”; in assay [13], “no binding (tested: 5 nM)”.

For the molecule KLLIHLSDLREYRRFEKEKLKSQWNNDNPLFKSATTTVMNPKFAES (other, UniProt P05107 724-769, looked up, not shown: small tags and cut ends, not fully specified, domain: cytoplasmic domain) [β2 integrin cytoplasmic domain model protein], in assay [1], the binding result is given as “binds”. Further, the dissociation constant (Kd) in assay [9] was 36 nM.

Take KLLITIHDRKEFAKFEEERARAKWDTANNPLYKEAT (other, UniProt P05106 742-777, looked up, not shown: small tags and cut ends, not fully specified, domain: cytoplasmic domain) [β3(752X) cytoplasmic tail model protein]: the binding result in [14] is “no binding”.

B3: β3(759X) cytoplasmic tail model protein (other, UniProt P05106 742-784, looked up, not shown: small tags and cut ends)
chain: KLLITIHDRKEFAKFEEERARAKWDTANNPLYKEATSTFTNIT
modifications: not fully specified
notes: domain: cytoplasmic domain; C-terminal truncation
On to B3, for which the binding result in [14] is “no binding”.

On to DGV[pY]TGLSTRNQET[pY]ETLKTCR [dually-phosphorylated FcεRIγ chain ITAM peptide], for which the “activation of Syk kinase in vitro (EC50)” value in assay [15] was 1000 to 2000 nM.

What is called Kd is the concentration at which binding is half-saturated.
